In patent publication US20220041691A1, “METHODS FOR DIAGNOSING OR TREATING POST-TRAUMATIC STRESS DISORDER, AND COMPOSITIONS THEREFOR” (Centre for Addiction and Mental Health, priority 2018, published 2022):
Numbering of substitutions follows the chain as printed. Names and notes keep the numbering of the source. Where two headings read alike, the source gives them in different places. Blank lines part the entries; values can stand above or below the molecule they belong to. Ends that are not written are not given here.

Key:
GR = molecular target: T1, GR (Mus musculus, UniProt P06537); assay: GST pull-down of GR by GST-FKBP51 fragments in mouse brain tissue; assay type: binding
T1 construct: from tissue; host or cells: mouse brain
T1 sequence (P06537 1-792): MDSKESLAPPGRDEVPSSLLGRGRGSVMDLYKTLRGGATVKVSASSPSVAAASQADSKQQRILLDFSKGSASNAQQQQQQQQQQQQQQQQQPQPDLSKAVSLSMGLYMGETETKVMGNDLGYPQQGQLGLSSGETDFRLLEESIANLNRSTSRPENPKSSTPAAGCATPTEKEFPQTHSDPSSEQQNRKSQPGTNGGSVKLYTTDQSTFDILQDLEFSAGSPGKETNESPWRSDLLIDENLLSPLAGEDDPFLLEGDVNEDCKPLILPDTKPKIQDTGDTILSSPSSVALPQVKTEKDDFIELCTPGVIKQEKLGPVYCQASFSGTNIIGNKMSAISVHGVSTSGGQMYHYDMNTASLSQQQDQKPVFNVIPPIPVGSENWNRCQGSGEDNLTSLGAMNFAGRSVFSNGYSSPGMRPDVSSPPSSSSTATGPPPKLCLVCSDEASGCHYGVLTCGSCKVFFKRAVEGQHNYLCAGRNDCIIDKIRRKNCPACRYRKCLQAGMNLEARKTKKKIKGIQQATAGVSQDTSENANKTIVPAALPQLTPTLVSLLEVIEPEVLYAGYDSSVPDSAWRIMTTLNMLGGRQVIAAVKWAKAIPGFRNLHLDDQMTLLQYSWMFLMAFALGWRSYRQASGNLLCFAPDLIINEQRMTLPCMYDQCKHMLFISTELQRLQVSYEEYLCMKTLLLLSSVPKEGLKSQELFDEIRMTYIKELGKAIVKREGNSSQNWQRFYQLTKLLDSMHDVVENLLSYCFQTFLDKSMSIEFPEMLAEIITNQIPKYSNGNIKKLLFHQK
Text: The present inventors identified that if increased GR-FKBP51 complex levels are part of the pathophysiology of PTSD, then disrupting the complex may rescue behaviors related to PTSD. To develop an agent (in this example, a peptide-based agent) capable of blocking the GR-FKBP51 interaction, experiments were first performed to identify the regions of the GR that are important to bind FKBP51 (and vice versa). Initially, GST-fusion proteins were used encoding the amino-terminus (NT) of GR (GRNT) and the carboxyl-terminus (CT) of GR (GRCT) for affinity purification. […] Extending this strategy, GRNT fragments were examined (see FIG. 8, where the 6 tested GRNT fragments, NT-1, NT-2, NT-3, NT-4, NT-5, and NT-6 are shown). […] Similarly, it was determined that the TPR (tetratricopeptide repeat) domains of FKBP51 bind GR (FIG. 2D). In these studies, GST-fusion proteins of 3 different portions of the FKBP51 protein were prepared (FK1, FK2, and TPR, see FIG. 9) and tested. The TPR fragment was identified as containing the relevant interaction region.
GST-fusion proteins encoding truncated GR fragments were amplified by PCR from full-length human cDNA clones. All constructs were sequenced to confirm the absence of PCR-generated errors. […]

FKBP51-TPR = molecular target: T2, FKBP51-TPR (Homo sapiens, UniProt Q13451); assay: Surface plasmon resonance, binding of FKBP51 TPR domain to GR and its phosphorylation mutants; settings: Flag-tagged GR immobilized on sensor chip, 25° C.
T2 construct: made in house; host or cells: bacteria
T2 sequence (Q13451 258-457): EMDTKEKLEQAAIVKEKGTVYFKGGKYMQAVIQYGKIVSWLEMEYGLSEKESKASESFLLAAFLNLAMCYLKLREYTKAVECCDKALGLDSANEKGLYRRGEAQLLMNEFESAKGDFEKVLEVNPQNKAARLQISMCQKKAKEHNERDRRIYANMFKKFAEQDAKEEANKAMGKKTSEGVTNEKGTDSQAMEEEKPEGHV
Procedure: The binding of FKBP51 TPR domain to GR and its phosphorylation mutants was determined by surface plasmon resonance using a Reichert SR7500DC instrument. Experiments were conducted at 25° C. with 2000 RU HEK293 expressed FLAG-tagged GR bound onto a FLAG antibody-coated Dextran 50,000 Da chip. Running buffer (PBS, pH 7.4 with 0.005% Tween 20) was used with a flow rate of 25 μl/min. With association time of 300s and dissociation of 240s, binding signals were determined by injecting various concentrations of the GST-FKBP51_TPR.

GFP-FKBP51 = molecular target: T3, GFP-FKBP51 (Homo sapiens, UniProt Q13451); assay: Co-immunoprecipitation of Flag-GR (WT, S211A, S211E) with GFP-FKBP51 in transfected HEK293T cells; assay type: cell-based; settings: HEK293T cells transfected with GR variant and GFP-FKBP51, n=3
T3 sequence (Q13451 1-457): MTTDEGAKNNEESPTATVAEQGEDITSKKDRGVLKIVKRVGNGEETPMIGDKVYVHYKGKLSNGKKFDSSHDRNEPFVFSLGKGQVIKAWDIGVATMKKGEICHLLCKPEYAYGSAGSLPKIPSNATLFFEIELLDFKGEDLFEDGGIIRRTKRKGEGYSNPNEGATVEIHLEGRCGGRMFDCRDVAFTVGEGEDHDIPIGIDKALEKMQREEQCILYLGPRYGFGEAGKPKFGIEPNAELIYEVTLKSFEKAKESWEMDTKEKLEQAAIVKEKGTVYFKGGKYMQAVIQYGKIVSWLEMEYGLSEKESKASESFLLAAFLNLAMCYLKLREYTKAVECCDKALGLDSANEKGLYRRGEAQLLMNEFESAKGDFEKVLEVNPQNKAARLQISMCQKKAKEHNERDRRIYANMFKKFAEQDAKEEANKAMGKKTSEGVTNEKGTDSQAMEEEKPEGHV
Text: Thus, it was investigated whether the increased GR-FKBP51 seen in fear-conditioned mice and PTSD patients was associated with altered GR S211 phosphorylation. […] Similar results were also seen in samples from PTSD patients (FIG. 5C n=12, p<0.05, t-test). To probe further into how S211 phosphorylation and GR-FKBP51 are related, two GR mutants were generated (see SEQ ID NOs: 10 (S211A) and 11 (S211E) of FIG. 10). S211A is a non-phosphorylated GR mutant and S211E is phosphomimetic GR mutant.
HEK293T cells were maintained as a monolayer culture at 37° C. in Dulbecco's Modified Eagle Medium (DMEM) (Invitrogen) supplemented with 10% fetal bovine serum (Gibco). Cells were grown to 90% confluence before being transiently transfected with DNA constructs by X-treme GENE 9 transfection reagent (Roche), following the manufacturer's instructions. About 24-48 hrs after transfection, cells were used for experiments.
Co-immunoprecipitation and Western blot analyses were performed as previously described.^24, 25, 26 For co-immunoprecipitation, 500˜1000 μg solubilized protein was extracted from whole mouse brain and incubated with primary antibody or control IgG (2˜4 μg) for 4 hrs at 4° C., followed by the addition of 25 μl protein A/G plus agarose (Santa Cruz Biotechnology) for 12 hrs. Pellets were washed, boiled for 5 min in SDS sample buffer and subjected to SDS-PAGE. 50˜100 μg of total protein extract was used as control in each experiment. After transfer of proteins into nitrocellulose, membranes were Western blotted with the primary antibodies. The intensity of protein level was quantified by densitometry (software: ImageLab, Bio-Rad).
Mutants of Flag-GR and GST-GR-NT were created with the QuickChange site-directed mutagenesis kit (Stratagene, La Jolla, Calif.). All mutants were confirmed by DNA sequencing.

[1] = read-out: KD for binding FKBP51 (SPR)

pull-down of GR by GST-FKBP51 fragment, Western blot (GR): can “pull-down”
Molecule: GST-TPR3: GST-fusion protein of FKBP51 TPR fragment 3 (GEAQLLMNEFESAKGDFEKVLEVNPQNKAARLQISMCQKKAKEHNERDRR; also: GST fusion protein)

pull-down of GR by GST-FKBP51 fragment, Western blot (GR): can “pull-down”
B1: GST-TPR: GST-fusion protein of FKBP51 tetratricopeptide repeat (TPR) domain (protein)
chain: T2 sequence (Q13451 258-457)
modifications: left off: a dimerising Fc or GST
notes: GST-fusion protein of FKBP51 tetratricopeptide repeat (TPR) domain

Kd (FKBP51-TPR; [1]): 0.412 µM | GR-FKBP51 complex level (Flag-GR co-immunoprecipitated with GFP-FKBP51) compared to wild-type GR (GFP-FKBP51): significantly higher | GR-FKBP51 complex level (Flag-GR co-immunoprecipitated with GFP-FKBP51) compared to wild-type GR (GFP-FKBP51; listed as S211A-GR): higher levels of the GR-FKBP51 complex
B2: S211A GR: non-phosphorylated GR mutant, Flag-tagged (protein)
chain: MDSKESLTPGREENPSSVLAQERGDVMDFYKTLRGGATVKVSASSPSLAVASQSDSKQRRLLVDFPKGSVSNAQQPDLSKAVSLSMGLYMGETETKVMGNDLGFPQQGQISLSSGETDLKLLEESIANLNRSTSVPENPKSSASTAVSAAPTEKEFPKTHSDVSSEQQHLKGQTGTNGGNVKLYTTDQSTFDILQDLEFSSGSPGKETNEAPWRSDLLIDENCLLSPLAGEDDSFLLEGNSNEDCKPLILPDTKPKIKDNGDLVLSSPSNVTLPQVKTEKEDFIELCTPGVIKQEKLGTVYCQASFPGANIIGNKMSAISVHGVSTSGGQMYHYDMNTASLSQQQDQKPIFNVIPPIPVGSENWNRCQGSGDDNLTSLGTLNFPGRTVFSNGYSSPSMRPDVSSPPSSSSTATTGPPPKLCLVCSDEASGCHYGVLTCGSCKVFFKRAVEGQHNYLCAGRNDCIIDKIRRKNCPACRYRKCLQAGMNLEARKTKKKIKGIQQATTGVSQETSENPGNKTIVPATLPQLTPTLVSLLEVIEPEVLYAGYDSSVPDSTWRIMTTLNMLGGRQVIAAVKWAKAIPGFRNLHLDDQMTLLQYSWMFLMAFALGWRSYRQSSANLLCFAPDLIINEQRMTLPCMYDQCKHMLYVSSELHRLQVSYEEYLCMKTLLLLSSVPKDGLKSQELFDEIRMTYIKELGKAIVKREGNSSQNWQRFYQLTKLLDSMHEVVENLLNYCFQTFLDKTMSIEFPEMLAEIITNQIPKYSNGNIKKLLFHQK
modifications: Flag tag; Amino Acid Sequence of S211A GR Mutant (non-phosphorylated GR mutant)
notes: non-phosphorylated GR mutant, Flag-tagged

Kd (FKBP51-TPR; figure legend values, read-out: KD for binding FKBP51-TPR (SPR)): 3.9 µM | Kd (FKBP51-TPR; [1]): 3.9 ± 0.01 µM | GR-FKBP51 complex level (Flag-GR co-immunoprecipitated with GFP-FKBP51) compared to wild-type GR (GFP-FKBP51): no significant difference
B3: S211E GR: phosphomimetic GR mutant, Flag-tagged (protein)
chain: B2 chain with A211E
modifications: Flag tag; Amino Acid Sequence of S211E GR Mutant (phosphomimetic GR mutant)
notes: phosphomimetic GR mutant, Flag-tagged
